Assay results reported in patent publication US20160015831A1.

Key:
human CD22 (human) [1] = biological target: human CD22 (human) (UniProt P20273); test: flow cytometry, REH cells, 10 µg/ml
human CD22 (human) [2] = biological target: human CD22 (human) (UniProt P20273); test: flow cytometry, Raji cells, 10 µg/mL
human CD22 (human) [3] = biological target: human CD22 (human) (UniProt P20273); test: flow cytometry, Ramos cells, 10 µg/mL
human CD22 (human) [4] = biological target: human CD22 (human) (UniProt P20273); test: flow cytometry, Daudi cells, 10 µg/ml
human CD22 (human) [5] = biological target: human CD22 (human) (UniProt P20273); test: flow cytometry, Daudi cells, 10 µg/mL
human CD22 (human) [6] = biological target: human CD22 (human) (UniProt P20273); test: flow cytometry, RL cells, 10 µg/mL

- MFI (human CD22 (human) [1]): 4.5
- MFI (human CD22 (human) [2]): 6.2
- MFI (human CD22 (human) [3]): 5.4
- MFI (human CD22 (human) [4]): 26.1
- MFI (human CD22 (human) [5]): 8.3
- MFI (human CD22 (human) [6]): 12.8
Substance: isotype control antibody human IgG
